Results reported in patent publication US11225653B2, “Methods and compounds for reducing threonyl-tRNA synthetase activity” (University of Vermont and State Agricultural College, priority 2012, dated 2022).
“Also recorded” adds a separate entry of the source.

Legend:
HUVECs = assay: Quantitative RT-PCR of TARS mRNA; assay type: cell-based, human; details: HUVECs exposed to 50 ng/ml VEGF or TNF-α
Procedure: Quantitative RT-PCR—Total RNA was extracted from cells using the RNeasy column protocol and cDNA was generated using an Omniscript reverse transcriptase assay according to the manufacturer's instructions (Qiagen, Frederick, Md.). Primers and probes for TARS and β2-microglobulin were Assays-on-Demand (Applied Biosystems, [Life Technologies, Carlsbad, Calif.]). RT-qPCR was performed using an ABI prism 7700 Sequence Detection System (Applied Biosystems). The relative quantity of mRNA level was determined using the comparative CT (ΔΔCT) method using β2-microglobulin to normalize mRNA level (Cassavaugh, Hale et al. 2011).

human TARS [1] = assay: Ap4G formation assay; assay type: biochemical; details: 2 mM ATP, 2 mM threonine, 2 mM GTP
human TARS [2] = assay: Ap4A formation assay; assay type: biochemical; details: 5 μM enzyme, 2 mM threonine, 2 mM ATP
Procedure: TARS purification and active site determination were performed as previously described (Williams, Mirando et al., 2013). TARS non-canonical catalytic activities were characterized using modifications from published methods (Guo, Chong et al. 2009). For Ap4A reactions 5 μM of wildtype TARS or R442A TARS were incubated for 10 minutes on ice with 2 mM threonine, and 10 μM BC194 or borrelidin as indicated in FIG. 17C. Reactions were initiated using 2 mM ATP with trace amounts of [α-^32P]-ATP as label. At specific time points aliquots were quenched in 3 volumes of 0.1% SDS, 400 mM sodium acetate and resolved on polyethyleneimine-cellulose plates by thin-layer chromatography (TLC) in 3 M NH4 (SO4)2 and 2% EDTA. Radioactive counts were identified by phosphorimaging and products quantified as fractions of total ATP added. The quantitation of product was normalized to take into account the fact that each Ap4A molecule has two equivalents of radioactive phosphorus.

human TARS [3] = assay: GTPase assay (GTP hydrolysis); assay type: biochemical; details: 2 mM GTP
human TARS [4] = assay: Steady state aminoacylation assay; assay type: biochemical; details: purified protein
Procedure: Steady State Aminoacylation Assay-The aminoacylation activities of the TARS constructs were determined using modifications to established procedures ([…] et al 2008). Briefly, reaction mixtures consisted of 20 mM Tris-HCl pH 8.0, 100 mM KCl, 10 mM MgCl2, 1 mM dithiothreitol, 2 mM ATP, 2.5 U pyrophosphatase (Roche), 80 μM threonine, 20 μM [14C]-threonine, and 5 μM of E. coli or human […]. Reactions were initiated with the addition of 0.25-0.75 μM TARS and run at 37° C. Aliquots were taken at varying time points and spotted onto Whatmann 3MM paper filters pre-soaked in 5% trichloroacetic acid (TCA). Upon completion, the filters were washed 3 times in excess TCA, once in 95% ethanol, and dried under a heating lamp. The formation of […] was detected by scintillation counter and the activity determined by linear regression of […] formed per active site per unit time.

[5] = tested on: chorioallantoic membrane (CAM); assay: Chick chorioallantoic membrane (CAM) assay; assay type: in vivo, chicken; details: for vessel formation / vascularization on the CAM after applied protein: purified protein applied daily to sponge, scored over 72 h
Procedure: Chick Chorioallantoic Membrane Assay-Fertilized chicken eggs (Sunrise Farms, Catskill, N.Y.) day 1-2 post-laying were incubated in a humidified incubator at 37° C. for 72 h. Cleaned eggs were cracked and plated in a sterile 10 cm^2 tissue culture-treated dish and incubated at 37° C. for another 7 days. On developmental day 10, 1 mm^3 sterile gelatin sponge pieces (Surgifoam®; Johnson & Johnson Wound Management, Somerville, N.J.) were placed within the outer one-third of the membrane between large vessels. 40 μg/ml human bFGF and 2 μg/mL human VEGF were used as pro-angiogenic control compounds; 100 μg/mL retinoic acid (Sigma-Aldrich, St. Louis, Mo.) diluted in phosphate-buffered saline (PBS) was used as an angiostatic control. All compounds were applied in 10 μl to the CAM every 24 h for 72 h. Images were taken using a Leica MZ6 stereomicroscope every 24 h. Compounds were scored according to a modified version of Intensity Scoring as previously described (Ribatti, Nico et al. 2006). Briefly, each experimental condition was given a blinded score from 0-5 based on the change in the extent of vessel convergence and formation in proximity to the sponge from day 0 to day 3. Total score is averaged individual experimental condition scores from at least 15 replicates.
Fertilized chicken embryos were cultured ex-ova and, starting at developmental day 10, agents were applied daily to gelfoam sponges on the CAM. Images were recorded daily over 72 h and scored blindly according to a modified version Intensity Scoring as previously described (Ribatti, Nico et al. 2006). Additional details regarding methods are provided in the Methods and Materials section of Example 1.

Row | Molecule | TARS mRNA / transcription (HUVECs) | rate of Ap4G formation (human TARS [1]) | production of Ap4A (human TARS [2]) | GTP hydrolysis (human TARS [3]) | aminoacylation activity of the protein (human TARS [4]) | sensitivity of protein-stimulated CAM vessel formation to BC194 ([5]; protein applied together with BC194) | vessel formation / vascularization on the CAM after applied protein [5]
1 | TNF-α | neither VEGF nor TNF-α induced an increase; also recorded: do not induce TARS transcription |  |  |  |  |  | 
2 | VEGF | neither VEGF nor TNF-α induced an increase; also recorded: do not induce TARS transcription |  |  |  |  |  | 
3 | E. coli ThrRS: bacterial (E. coli) threonyl-tRNA synthetase (protein, UniProt P0A8M3 1-642, looked up) Threonine--tRNA ligase: MPVITLPDGSQRHYDHAVSPMDVALDIGPGLAKACIAGRVNGELVDACDLIENDAQLSIITAKDEEGLEIIRHSCAHLLGHAIKQLWPHTKMAIGPVIDNGFYYDVDLDRTLTQEDVEALEKRMHELAEKNYDVIKKKVSWHEARETFANRGESYKVSILDENIAHDDKPGLYFHEEYVDMCRGPHVPNMRFCHHFKLMKTAGAYWRGDSNNKMLQRIYGTAWADKKALNAYLQRLEEAAKRDHRKIGKQLDLYHMQEEAPGMVFWHNDGWTIFRELEVFVRSKLKEYQYQEVKGPFMMDRVLWEKTGHWDNYKDAMFTTSSENREYCIKPMNCPGHVQIFNQGLKSYRDLPLRMAEFGSCHRNEPSGSLHGLMRVRGFTQDDAHIFCTEEQIRDEVNGCIRLVYDMYSTFGFEKIVVKLSTRPEKRIGSDEMWDRAEADLAVALEENNIPFEYQLGEGAFYGPKIEFTLYDCLDRAWQCGTVQLDFSLPSRLSASYVGEDNERKVPVMIHRAILGSMERFIGILTEEFAGFFPTWLAPVQVVIMNITDSQSEYVNELTQKLSNAGIRVKADLRNEKIGFKIREHTLRRVPYMLVCGDKEVESGKVAVRTRRGKDLGSMDVNEVIEKLQQEIRSRSLKQLEE |  | 0.5612 Ap4G/active site/min | 0.5612 Ap4A/active site/min | not |  |  | 
4 | L567V TARS: BC194-resistant (borrelidin-resistant) L567V mutant of human TARS (protein, UniProt P26639 1-723, looked up, variant L567V) Threonine--tRNA ligase 1, …: MFEEKASSPSGKMGGEEKPIGAGEEKQKEGGKKKNKEGSGDGGRAELNPWPEYIYTRLEMYNILKAEHDSILAEKAEKDSKPIKVTLPDGKQVDAESWKTTPYQIACGISQGLADNTVIAKVNNVVWDLDRPLEEDCTLELLKFEDEEAQAVYWHSSAHIMGEAMERVYGGCLCYGPPIENGFYYDMYLEEGGVSSNDFSSLEALCKKIIKEKQAFERLEVKKETLLAMFKYNKFKCRILNEKVNTPTTTVYRCGPLIDLCRGPHVRHTGKIKALKIHKNSSTYWEGKADMETLQRIYGISFPDPKMLKEWEKFQEEAKNRDHRKIGRDQELYFFHELSPGSCFFLPKGAYIYNALIEFIRSEYRKRGFQEVVTPNIFNSRLWMTSGHWQHYSENMFSFEVEKELFALKPMNCPGHCLMFDHRPRSWRELPLRLADFGVLHRNELSGALTGLTRVRRFQQDDAHIFCAMEQIEDEIKGCLDFLRTVYSVFGFSFKLNLSTRPEKFLGDIEVWDQAEKQLENSLNEFGEKWELNSGDGAFYGPKIDIQIKDAIGRYHQCATIQLDFQVPIRFNLTYVSHDGDDKKRPVIVHRAILGSVERMIAILTENYGGKWPFWLSPRQVMVVPVGPTCDEYAQKVRQQFHDAKFMADIDLDPGCTLNKKIRNAQLAQYNFILVVGEKEKISGTVNIRTRDNKVHGERTISETIERLQQLKEFRSKQAEEEF |  |  |  |  | activity is not compromised | not inhibited by application of BC194 | stimulated vessel formation
5 | R442A TARS: aminoacylation-deficient mutant of hTARS, active site Arg442 substituted with alanine (protein, UniProt P26639 1-723, looked up, variant R442A) Threonine--tRNA ligase 1, …: MFEEKASSPSGKMGGEEKPIGAGEEKQKEGGKKKNKEGSGDGGRAELNPWPEYIYTRLEMYNILKAEHDSILAEKAEKDSKPIKVTLPDGKQVDAESWKTTPYQIACGISQGLADNTVIAKVNNVVWDLDRPLEEDCTLELLKFEDEEAQAVYWHSSAHIMGEAMERVYGGCLCYGPPIENGFYYDMYLEEGGVSSNDFSSLEALCKKIIKEKQAFERLEVKKETLLAMFKYNKFKCRILNEKVNTPTTTVYRCGPLIDLCRGPHVRHTGKIKALKIHKNSSTYWEGKADMETLQRIYGISFPDPKMLKEWEKFQEEAKNRDHRKIGRDQELYFFHELSPGSCFFLPKGAYIYNALIEFIRSEYRKRGFQEVVTPNIFNSRLWMTSGHWQHYSENMFSFEVEKELFALKPMNCPGHCLMFDHRPRSWRELPLRLADFGVLHANELSGALTGLTRVRRFQQDDAHIFCAMEQIEDEIKGCLDFLRTVYSVFGFSFKLNLSTRPEKFLGDIEVWDQAEKQLENSLNEFGEKWELNSGDGAFYGPKIDIQIKDAIGRYHQCATIQLDFQLPIRFNLTYVSHDGDDKKRPVIVHRAILGSVERMIAILTENYGGKWPFWLSPRQVMVVPVGPTCDEYAQKVRQQFHDAKFMADIDLDPGCTLNKKIRNAQLAQYNFILVVGEKEKISGTVNIRTRDNKVHGERTISETIERLQQLKEFRSKQAEEEF |  | not catalyzed; also recorded: blocked | no appreciable activity; also recorded: blocked | 0.2137 GDP/active site/min | essentially no aminoacylation activity; also recorded: virtually negligible aminoacylation function |  | virtually indistinguishable from wild type
